Results on one molecule are retold here after patent US20200190204A1.

This test has as its target hBAFF-R-GFP fusion protein on mouse fibroblast L cells (clone D2C) (human) (UniProt Q96RJ3). Kind of test: cell ELISA of hybridoma supernatant, anti-mouse IgG-HRP; same clone on parental L cell: 0.102. For orientation: An ELISA detects its analyte on a solid surface through an enzyme-linked reagent.

B1: mouse mAb Clone 55 (hybridoma) (antibody, V domains shown)
VH: QVTLKESGPGILKPSQTLSLTCSFSGFSLSTSGMGVGWIRQPSGKGLEWLAHIWWDDDKYYNSSLKSHLTISKDTSRNQVFLKITSVDTADTATYYCARSFGYGLDYWGQGTTLTVSS
VL: DIQMTQTTSSLSASLGDRVTISCSASQDISNYLNWYQQKPDGTVKLLIYYTSSLHSGVPSRFSGSGSGTDYSLTISSLEPEDIATYYCHQFSELPWTFGGGTKLEIKR
With B1, the OD 450 nm on (h)BAFF-R-expressing cells is 1.07 OD 450 nm.
